Measured values reported in patent US20160130361A1.
Values belong to the substance of their own block, whether it stands above or below them.

Tests used:
[1] = biological target: BDD rFVIII (B domain deleted recombinant Factor VIII) (human) (UniProt P00451); assay: SPR, ProteOn XPR36; run 1 of 3 (top panel)
[2] = biological target: rFVIIIFc; assay: SPR, ProteOn XPR36; run 1 of 3 (top panel)
[3] = biological target: BDD rFVIII (B domain deleted recombinant Factor VIII) (human) (UniProt P00451); assay: SPR, ProteOn XPR36; run 2 of 3 (middle panel)
[4] = biological target: rFVIIIFc; assay: SPR, ProteOn XPR36; run 2 of 3 (middle panel)
[5] = biological target: BDD rFVIII (B domain deleted recombinant Factor VIII) (human) (UniProt P00451); assay: SPR (ProteOn XPR36), mean of triplicate
[6] = biological target: rFVIIIFc; assay: SPR (ProteOn XPR36), mean of triplicate
[7] = biological target: BDD rFVIII (B domain deleted recombinant Factor VIII) (human) (UniProt P00451); assay: SPR, ProteOn XPR36; run 3 of 3 (bottom panel)
[8] = biological target: rFVIIIFc; assay: SPR, ProteOn XPR36; run 3 of 3 (bottom panel)
[9] = biological target: BDD rFVIII (B domain deleted recombinant Factor VIII) (human) (UniProt P00451); assay: method not printed on the sheet or in the legend (affinities of Example 3 are by SPR); SD 0.0073 printed in the same row
[10] = biological target: rFVIIIFc; assay: method not printed on the sheet or in the legend (affinities of Example 3 are by SPR); SD 0.0023 printed in the same row
[11] = biological target: BDD rFVIII (B domain deleted recombinant Factor VIII) (human) (UniProt P00451); assay: SPR, ProteOn XPR36; run 3 of 3 (bottom panel) [continued]
[12] = biological target: rFVIIIFc; assay: as above
[13] = biological target: BDD rFVIII (B domain deleted recombinant Factor VIII) (human) (UniProt P00451); assay: SPR, ProteOn XPR36; run 1 of 3 (top panel) [continued]
[14] = biological target: rFVIIIFc; assay: as above
[15] = biological target: BDD rFVIII (B domain deleted recombinant Factor VIII) (human) (UniProt P00451); assay: SPR, ProteOn XPR36; run 2 of 3 (middle panel) [continued]
[16] = biological target: rFVIIIFc; assay: as above

Sequence of UniProt P00451 (P00451 other isoform, or with tags, fused parts or gaps): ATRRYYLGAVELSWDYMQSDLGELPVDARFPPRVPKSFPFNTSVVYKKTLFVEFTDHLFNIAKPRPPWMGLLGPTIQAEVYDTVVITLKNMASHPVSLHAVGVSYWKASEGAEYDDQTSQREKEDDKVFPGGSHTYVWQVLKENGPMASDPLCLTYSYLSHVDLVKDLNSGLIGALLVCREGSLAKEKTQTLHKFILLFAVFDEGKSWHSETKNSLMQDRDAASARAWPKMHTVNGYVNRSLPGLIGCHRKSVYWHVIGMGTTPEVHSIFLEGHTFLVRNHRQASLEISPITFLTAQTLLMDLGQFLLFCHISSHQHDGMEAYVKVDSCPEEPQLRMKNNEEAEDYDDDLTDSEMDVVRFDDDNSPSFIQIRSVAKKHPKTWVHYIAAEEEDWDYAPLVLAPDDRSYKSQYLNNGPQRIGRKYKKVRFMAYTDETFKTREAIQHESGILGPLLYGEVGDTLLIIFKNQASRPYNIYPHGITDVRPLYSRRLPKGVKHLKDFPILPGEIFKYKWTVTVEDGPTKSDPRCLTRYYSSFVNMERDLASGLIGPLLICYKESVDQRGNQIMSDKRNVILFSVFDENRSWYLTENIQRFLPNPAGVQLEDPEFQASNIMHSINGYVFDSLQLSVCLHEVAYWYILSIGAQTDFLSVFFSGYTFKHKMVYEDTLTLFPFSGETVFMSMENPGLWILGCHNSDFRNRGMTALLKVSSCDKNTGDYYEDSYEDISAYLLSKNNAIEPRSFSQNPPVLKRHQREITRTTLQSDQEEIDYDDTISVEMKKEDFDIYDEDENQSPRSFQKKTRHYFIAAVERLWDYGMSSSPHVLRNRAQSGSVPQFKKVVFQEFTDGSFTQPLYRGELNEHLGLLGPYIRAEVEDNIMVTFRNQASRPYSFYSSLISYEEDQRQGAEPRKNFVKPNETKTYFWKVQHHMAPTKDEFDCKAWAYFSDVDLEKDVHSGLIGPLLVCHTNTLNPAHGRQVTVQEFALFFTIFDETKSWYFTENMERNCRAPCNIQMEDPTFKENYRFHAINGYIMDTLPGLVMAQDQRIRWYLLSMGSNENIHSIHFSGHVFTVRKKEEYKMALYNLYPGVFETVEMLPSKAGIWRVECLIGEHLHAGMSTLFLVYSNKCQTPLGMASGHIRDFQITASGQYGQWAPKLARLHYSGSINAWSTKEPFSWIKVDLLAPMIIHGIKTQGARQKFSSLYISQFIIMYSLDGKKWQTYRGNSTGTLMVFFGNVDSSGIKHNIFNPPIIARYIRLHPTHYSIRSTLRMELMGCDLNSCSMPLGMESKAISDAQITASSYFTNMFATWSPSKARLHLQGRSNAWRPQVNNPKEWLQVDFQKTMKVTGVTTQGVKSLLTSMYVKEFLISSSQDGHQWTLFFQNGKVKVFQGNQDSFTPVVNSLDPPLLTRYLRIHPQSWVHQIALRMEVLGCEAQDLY

Kd [1]: 0.126 nM
koff [1]: 0.000127 s⁻¹
kon [1]: 1e+06 M⁻¹ s⁻¹
Kd [2]: 0.127 nM
koff [2]: 0.000103 s⁻¹
kon [2]: 809000 M⁻¹ s⁻¹
Kd [3]: 0.117 nM
koff [3]: 0.000131 s⁻¹
kon [3]: 1.12e+06 M⁻¹ s⁻¹
Kd [4]: 0.139 nM
koff [4]: 0.000104 s⁻¹
kon [4]: 746000 M⁻¹ s⁻¹
Kd [5]: 0.118 nM
Kd [6]: 0.118 nM
Kd [7]: 0.114 nM
koff [7]: 0.000119 s⁻¹
kon [7]: 1.04e+06 M⁻¹ s⁻¹
Kd [8]: 0.12 nM
koff [8]: 0.000104 s⁻¹
kon [8]: 865000 M⁻¹ s⁻¹
Substance: GMA8014 (antibody)

Kd [9]: 0.104 nM
Kd [10]: 0.142 nM
Substance: ESH8 Fab

Kd [11]: 0.07 nM
koff [11]: 0.000119 s⁻¹
kon [11]: 1.7e+06 M⁻¹ s⁻¹
Kd [12]: 0.066 nM
koff [12]: 0.00011 s⁻¹
kon [12]: 1.66e+06 M⁻¹ s⁻¹
Kd [13]: 0.077 nM
koff [13]: 0.000127 s⁻¹
kon [13]: 1.65e+06 M⁻¹ s⁻¹
Kd [14]: 0.0647 nM
koff [14]: 0.000102 s⁻¹
kon [14]: 1.58e+06 M⁻¹ s⁻¹
Kd [5]: 0.0731 nM
Kd [6]: 0.0683 nM
Kd [15]: 0.0722 nM
koff [15]: 0.000124 s⁻¹
kon [15]: 1.72e+06 M⁻¹ s⁻¹
Kd [16]: 0.0743 nM
koff [16]: 0.000118 s⁻¹
kon [16]: 1.59e+06 M⁻¹ s⁻¹
Substance: GMA8020 (antibody)

Kd [11]: 0.101 nM
koff [11]: 0.000143 s⁻¹
kon [11]: 1.42e+06 M⁻¹ s⁻¹
Kd [12]: 0.0902 nM
koff [12]: 0.000127 s⁻¹
kon [12]: 1.4e+06 M⁻¹ s⁻¹
Kd [13]: 0.0855 nM
koff [13]: 0.000131 s⁻¹
kon [13]: 1.53e+06 M⁻¹ s⁻¹
Kd [14]: 0.0913 nM
koff [14]: 0.000133 s⁻¹
kon [14]: 1.46e+06 M⁻¹ s⁻¹
Kd [5]: 0.0921 nM
Kd [6]: 0.0873 nM
Kd [15]: 0.0897 nM
koff [15]: 0.000138 s⁻¹
kon [15]: 1.54e+06 M⁻¹ s⁻¹
Kd [16]: 0.0804 nM
koff [16]: 0.00012 s⁻¹
kon [16]: 1.49e+06 M⁻¹ s⁻¹
Substance: GMA8011 (antibody)

Kd [5]: 0.248 nM
Kd [6]: 0.277 nM
Substance: ESH4 (antibody)

Kd [5]: 0.325 nM
Kd [6]: 0.474 nM
Substance: GMA012 (antibody)

Kd [5]: 0.104 nM
Kd [6]: 0.142 nM
Substance: ESH8 (antibody)
